Reference: PMC8273886, “Design of a Stable Cyclic Peptide Analgesic Derived from Sunflower Seeds that Targets the κ-Opioid Receptor for the Treatment of Chronic Abdominal Pain” (Journal of Medicinal Chemistry, 2021)
Bridge positions count the residues as written; N and C are the ends. Square brackets hold non-standard residues; d marks the D form. dNle = CCCC[C@@H](N)C(=O)O

B1: helianorphin-1 (peptide)
peptide: cyclo(CYGGFLRRIRPKLKCFPDGR)
modifications: disulfide 1-15 (inferred)
B2: helianorphin-4 (peptide)
peptide: cyclo(CTKSIPPICYGGFLRRI)
modifications: disulfide 1-9 (inferred)
notes: source: synthetic peptide (Fmoc chemistry, backbone cyclised, oxidised, RP-HPLC purified)
B3: helianorphin-19 (peptide)
peptide: cyclo(CYGGFLRRCIRPKLK)
modifications: disulfide 1-9 (inferred)
notes: dyn A 1–13 divided into two fragments (YGGFLRR and IRPKLK) placed in the two loops of the SFTI-1 scaffold; source: synthetic peptide (Fmoc chemistry, backbone cyclised, oxidised, RP-HPLC purified)
B4: helianorphin-12 (peptide)
chain: cyclo(CT[dF][dF][dNle][dR]PICFPDGR)
modifications: disulfide 1-9 (inferred)
B5: helianorphin-3 (peptide)
peptide: cyclo(CYGGFLRRICFPDGR)
modifications: disulfide 1-10 (inferred)
notes: as for B2
B6: helianorphin-2 (peptide)
peptide: cyclo(CTKSIPPICYGGFLRRIRPKLK)
modifications: disulfide 1-9 (inferred)
notes: as for B2
B7: helianorphin-18 (peptide)
peptide: cyclo(CTYGGFLRCRIRPKLK)
modifications: disulfide 1-9 (inferred)
notes: dyn A 1–13 divided into two fragments (YGGFLR and RIRPKLK) placed in the two loops of the SFTI-1 scaffold; source: synthetic peptide (Fmoc chemistry, backbone cyclised, oxidised, RP-HPLC purified)
B8: sunflower trypsin inhibitor-1 (SFTI-1) (peptide)
peptide: cyclo(CTKSIPPICFPDGR)
modifications: disulfide 1-9 (inferred)
notes: SFTI-1, 14-residue cyclic peptide from the seeds of sunflower (Helianthus annuus); The methods say that all peptides were synthesised; source: synthetic peptide (Fmoc chemistry, backbone cyclised, oxidised, RP-HPLC purified)
B9: helianorphin-7 (peptide)
peptide: cyclo(CTASIPPICYGGFLR)
modifications: disulfide 1-9 (inferred)
notes: SFTI-1 scaffold (K replaced with A) with YGGFL grafted after the second Cys; source: synthetic peptide (Fmoc chemistry, backbone cyclised, oxidised, RP-HPLC purified)
B10: helianorphin-10 (peptide)
peptide: cyclo(CT[dF][dF][dL][dK]PICFPDGR)
modifications: disulfide 1-9 (inferred)
notes: as for B2
B11: helianorphin-9 (peptide)
peptide: cyclo(CTASIPPICYGGFR)
modifications: disulfide 1-9 (inferred)
notes: SFTI-1 scaffold (K replaced with A) with dyn A 1–4 (YGGF) grafted after the second Cys; source: synthetic peptide (Fmoc chemistry, backbone cyclised, oxidised, RP-HPLC purified)
B12: helianorphin-13 (peptide)
chain: cyclo(CTASIPPIC[dF][dF][dNle][dR]R)
modifications: disulfide 1-9 (inferred)
B13: helianorphin-8 (peptide)
peptide: cyclo(CTYGGFPICFPDGR)
modifications: disulfide 1-9 (inferred)
notes: SFTI-1 scaffold with dyn A 1–4 (YGGF) grafted after CT; source: synthetic peptide (Fmoc chemistry, backbone cyclised, oxidised, RP-HPLC purified)
B14: helianorphin-11 (peptide)
peptide: cyclo(CTASIPPIC[dF][dF][dL][dK]R)
modifications: disulfide 1-9 (inferred)
notes: as for B2
B15: helianorphin-6 (peptide)
peptide: cyclo(CTYGGFLRCFPDGR)
modifications: disulfide 1-9 (inferred)
notes: SFTI-1 scaffold with dyn A 1–6 (YGGFLR) grafted after CT; source: synthetic peptide (Fmoc chemistry, backbone cyclised, oxidised, RP-HPLC purified)
B16: helianorphin-5 (peptide)
peptide: cyclo(CYGGFLRICFPDGR)
modifications: disulfide 1-9 (inferred)
notes: SFTI-1 scaffold with dyn A 1–6 (YGGFLR) grafted after the first Cys; source: synthetic peptide (Fmoc chemistry, backbone cyclised, oxidised, RP-HPLC purified)

Target: T1, mouse κ-opioid receptor (KOR) tagged with EGFP (mouse, UniProt P33534 1-380)
Test: cell-based or functional assay
Settings: not given

Binder | cAMP inhibition in HEK293 cells stably expressing the mouse KOR, Emax | cAMP inhibition in HEK293 cells stably expressing the mouse KOR, EC50
B1 | 106% | –
B2 | 87.8% | 4700 nM
B3 | 108% | 45 nM
B4 | 117% | –
B5 | 85.1% | 1400 nM
B6 | 102% | 1300 nM

Target: T1, mouse κ-opioid receptor (KOR) tagged …
Test: radioligand binding; concentration-dependent competition against 1 nM [3H]-diprenorphine on membranes (7 μg/assay) of HEK293 cells stably expressing the mouse KOR; 50 mM Tris–HCl pH 7.4, 10 mM MgCl2, 0.1% BSA; 1 h at 37 °C; Ki from IC50 by Cheng and Prusoff
Settings: one partner purified

Binder | Ki
B7 | 650 nM
B2 | 2500 nM
B3 | 21 nM
B5 | 3200 nM
B6 | 97 nM

Target: T1, mouse κ-opioid receptor (KOR) tagged …
Test: cell-based or functional assay
Settings: not given
Remark: another data set of the same source

Binder | β-arrestin-2 recruitment to the KOR (BRET, HEK293 cells with mouse KOR-EGFP and β-arrestin-2-nano-luciferase), EC50
B3 | 1400 nM

Target: T2, mouse μ-opioid receptor (MOR) (mouse, UniProt P42866 1-398)
T2 construct: μ-opioid receptor, mouse; the construct is not described; source: HEK293, stably expressing, membrane preparations
Test: radioligand binding; competition against [3H]-diprenorphine on membranes of HEK293 cells stably expressing the mouse MOR (50 μg) or DOR (20 μg); 50 mM Tris–HCl pH 7.4, 10 mM MgCl2, 0.1% BSA; 1 h at 37 °C
Settings: one partner purified

Binder | Ki
B3 | > 10000 nM

Target: T3, mouse δ-opioid receptor (DOR) (mouse, UniProt P32300 1-372)
T3 construct: δ-opioid receptor, mouse; the construct is not described; source: HEK293, stably expressing, membrane preparations
Test: as above
Settings: one partner purified

Binder | Ki
B3 | > 10000 nM

Target: T1, mouse κ-opioid receptor (KOR) tagged …
Test: radioligand binding; three concentrations of SFTI-1 (μM), displacement of 1 nM [3H]-diprenorphine on membranes of HEK293 cells stably expressing the mouse KOR
Settings: one partner purified

Binder | Ki
B8 | > 30000 nM

Target: T1, mouse κ-opioid receptor (KOR) tagged …
Test: radioligand binding; two-point displacement: 1 nM [3H]-diprenorphine with or without 10 μM or 100 nM peptide on membranes of HEK293 cells stably expressing the mouse KOR
Settings: one partner purified

Binder | Ki
B9 | > 10000 nM
B10 | > 10000 nM
B11 | > 10000 nM
B12 | > 10000 nM
B13 | > 10000 nM
B14 | > 10000 nM
B15 | > 10000 nM
B16 | > 10000 nM
